Assay results as given in patent publication US8889126B2, “Methods and compositions for treating neuropathies” (Washington University, priority 2004, dated 2014).

How the values were obtained:
[1] = test system: NAD generated after 1 hour at 37 deg; test: relative NMNAT enzymatic activity of affinity purified 6xHis-tagged proteins from HEK293T cells; assay type: biochemical; settings: affinity purified protein, normalized to protein concentration
Procedure: NMNAT protein overexpression, affinity purification and enzymatic assay. HEK293T cells were transfected with an expression plasmid for each enzyme by using calcium phosphate precipitation. Three days later, cells were washed with PBS twice and then suspended in the buffer containing 50 mM Sodium Phosphate (pH8.0), and 300 mM NaCl (buffer A). Cells were then homogenized by SONIFIRE 450 (BRANSON) and supernatant was collected by centrifugation at 10,000 g for 10 min. […] Relative NMNAT enzymatic activity was measured by using affinity purified proteins as described before and subtracted the value obtained from mock transfected cells and normalized by the amount of recombinant protein determined by densitometry.
Next we confirmed enzymatic activity of cytNMNAT1, NMNAT1 and its mutant cytNMNAT1 were purified from the cell lysate expressing either of proteins by using affinity gel. […] We expressed hexa-histidine tagged NMNAT3 or nucNMNAT3 in HEK293T cells and analyzed subcellular localization and its enzymatic activity. […] In these investigations, the amount of NAD generated after 1 hour at 37 deg was converted NADH, quantified and normalized to protein concentration. […] FIG. 7E presents a quantitative analysis of remaining neurite numbers at 12, 24, 48, and 72 hours after axotomy. […]

DRG explant neurons = test: in vitro Wallerian degeneration assay: DRG explant cultures, axonal transection by removal of neuronal cell bodies; assay type: cell-based, mouse; settings: lentivirus-infected DRG neurons
Procedure: To identify the mechanism of delayed axonal degeneration mediated by the Wld^s protein, we employed an in-vitro Wallerian degeneration model. Primary DRG explant neurons were infected with lentivirus expressing the appropriate proteins, and axons were injured by either removal of the neuronal cell body (transection) or growth in vincristine (toxic).
Mouse DRG explants from E12.5 embryos were cultured in the presence of 1 nM nerve growth factor. Non-neuronal cells were removed from the cultures by adding 5-fluorouracil to the culture medium. Transection of neurites was performed at 10-20 DIV using an 18-gauge needle to remove the neuronal cell bodies. Incubation with β-nicotinamide adenine dinucleotide (Sigma) or Sirtinol (Calbiochem) was performed using conditions indicated in the text or figures.
Lentiviral expression vectors were generated using HEK293T cells as described above. For confirmation of lentivirus-derived protein expression, HEK293T cells were infected with lentivirus and cells were lysed 3 days after infection. These lysates were analyzed by immunoblot to using anti-His tag monoclonal antibody (Qiagen) to detect expression of the respective hexahistidine-tagged proteins. Lentiviral infection of DRG neurons was performed by incubating ˜10^6-10^7 pfu/ml virus with the DRG explant for 24 h beginning 3-7 days prior to axonal transection. The infected neurons were examined under an inverted fluorescent microscope to insure detectable lentivirus-mediated transgene expression in >95% of neurons.
Quantitative analysis of axonal degeneration was performed as previously described (Zhai, et al., Neuron 39:217-25, 2003). Briefly, the cultures were examined using phase contrast microscopy at the indicated times. Axons with a fragmented, non-refractile appearance were designated as “degenerated.” At each time point, at least 200 singly distinguishable axons were blindly scored from several randomly taken images of each culture. Each condition was tested in triplicate explants in each experiment. Results were obtained from 2-4 independent experiments for each condition. Statistical analysis was performed by Student's T test. For calculations of neurite-covered area, digitally captured images from quadruplicate samples of two independent experiments were analyzed using analysis 3.1 software (Soft Imaging System, Lakewood, Colo.).
Cell culture, in vitro axotomy, and quantification of axonal degeneration. Mouse DRG explants from E12.5 embryos were cultured in the DMEM containing 10% FCS and 1 nM nerve growth factor. Non-neuronal cells were removed from the cultures by adding 5-fluorouracil to the culture media. Transection of neurites was performed at 14-21 DIV using an 18-gauge needle to remove the neuronal cell bodies. Lentiviral expression vectors were generated. Lentiviral infection was performed 3-7 days prior to axonal transection for 24 hr. Quantitative analysis of neurite degeneration was performed.

NMNAT3: murine nicotinamide mononucleotide adenylyltransferase3
enzymatic activity (relative NMNAT activity) [1]: comparable enzymatic activity compared with NMNAT1 | axonal degeneration after transection in neurons expressing the construct (DRG explant neurons): same extent of delay in neurite degeneration as well as NMNAT1
